Here are results for two molecules from patent publication US20230383009A1 (CARIBOU BIOSCIENCES, published 2023).

Assay [1] has as its target T1, extracellular ROR1 protein (human, UniProt Q01973 30-406).
T1 construct: extracellular domain
The assay is described as follows: ELISA. (ELISA stands for enzyme-linked immunosorbent assay.)

For assay [2], the target named is T2, ROR1 on human cancer cell lines (HepG2, MDA231, HT-29, SKOV-3) (human, UniProt Q01973 30-937).
T2 construct: whole, on cells; Endogenous ROR1 of tumour cell lines, not transfected cells; also called ROR1-positive cells; ROR1-expressing cell line SKOV-3
T2 sequence (Q01973 30-937): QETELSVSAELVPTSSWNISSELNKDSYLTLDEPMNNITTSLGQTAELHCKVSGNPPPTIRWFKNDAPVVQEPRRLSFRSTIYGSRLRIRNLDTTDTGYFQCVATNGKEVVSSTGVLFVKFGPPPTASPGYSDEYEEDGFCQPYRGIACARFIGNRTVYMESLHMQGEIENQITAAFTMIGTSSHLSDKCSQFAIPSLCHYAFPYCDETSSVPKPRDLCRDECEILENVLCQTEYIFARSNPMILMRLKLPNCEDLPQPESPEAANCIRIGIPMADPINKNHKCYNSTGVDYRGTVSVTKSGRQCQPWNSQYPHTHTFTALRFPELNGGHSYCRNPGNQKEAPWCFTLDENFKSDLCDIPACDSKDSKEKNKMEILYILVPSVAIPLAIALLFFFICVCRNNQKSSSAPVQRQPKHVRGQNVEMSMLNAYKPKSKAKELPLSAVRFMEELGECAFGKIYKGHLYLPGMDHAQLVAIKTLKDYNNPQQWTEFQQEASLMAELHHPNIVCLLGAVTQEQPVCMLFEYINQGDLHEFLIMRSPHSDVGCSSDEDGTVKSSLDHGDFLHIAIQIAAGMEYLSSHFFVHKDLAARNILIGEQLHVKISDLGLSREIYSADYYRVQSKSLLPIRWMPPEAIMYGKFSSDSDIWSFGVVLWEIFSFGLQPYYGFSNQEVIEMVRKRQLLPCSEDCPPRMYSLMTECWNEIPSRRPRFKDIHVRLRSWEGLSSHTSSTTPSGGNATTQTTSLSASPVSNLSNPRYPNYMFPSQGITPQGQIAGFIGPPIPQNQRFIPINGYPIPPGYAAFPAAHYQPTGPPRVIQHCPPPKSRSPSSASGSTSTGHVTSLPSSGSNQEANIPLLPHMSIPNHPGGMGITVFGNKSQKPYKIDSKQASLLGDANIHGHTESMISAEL
The assay is described as follows: flow cytometry (FACS) on cancer cell lines. An excerpt: Normal keratinocytes were used as a negative control (FIG. 4). (MFI: […] compared to the isotype).
On the technique in general: In flow cytometry, cells or beads pass a laser one at a time.

The target of assay [3] is T3, ROR1 extracellular domain fused to human Fc (hFc) protein (human, UniProt Q01973 30-406).
T3 construct: extracellular domain; also called ROR1-human Fc fusion protein; human ROR1 antigen; not shown: human Fc (hFc)
T3 sequence (Q01973 30-406): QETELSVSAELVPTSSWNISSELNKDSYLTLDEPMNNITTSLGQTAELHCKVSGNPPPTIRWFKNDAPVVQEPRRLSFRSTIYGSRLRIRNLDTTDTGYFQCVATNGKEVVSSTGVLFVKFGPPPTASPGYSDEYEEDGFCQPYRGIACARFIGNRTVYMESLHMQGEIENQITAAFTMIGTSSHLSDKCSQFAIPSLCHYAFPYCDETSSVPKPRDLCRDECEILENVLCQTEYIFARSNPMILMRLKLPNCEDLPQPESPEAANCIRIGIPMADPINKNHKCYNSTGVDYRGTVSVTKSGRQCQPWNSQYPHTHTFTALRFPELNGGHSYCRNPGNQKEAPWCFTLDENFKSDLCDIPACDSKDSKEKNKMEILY
The assay is described as follows: Western blot, anti-ROR1 scFv-mouse Fc fusion as primary antibody, anti-mouse IgG-HRP as secondary. An excerpt: In this example, we generated a mouse monoclonal anti-ROR1 antibody using standard hybridoma technology. The mouse anti-ROR1 antibody (IgG1 type) detected extracellular ROR1 protein by ELISA (data not shown). We sequenced this hybridoma clone 2H6 and generated an scFv using VH and VL (see further in Example 2). […] The ROR1-human Fc fusion protein was detected with an antibody directed against the human Fc domain.

T1 sequence (Q01973 30-406): as above

B1: mouse monoclonal anti-ROR1 antibody, hybridoma clone 2H6 (antibody, V domains shown)
VH: VKLVESGGGLVKPGGSLKLSCAASGFTFSTYAMSWVRQTPEKRLEWVASISSGGNTYYPDSVKGRFTISRDNARHILYLQMSSLRSEDTAMYYCARDSYYFGNSVYYAMDYWGQGTSVTVSS
VL: DIKMTQSPSSMYASLGERVTITCKASQDINSYFSWFQQKPGKSPKTLIYRANRLVDGVPSRFSGSGSGQDYSLTISSLEYEDMGIYYCLQYDEFPYTFGGGTKLEIKR
notes: Hybridoma antibody, mouse IgG1 type; also called mouse anti-ROR1 antibody (IgG1 type); mouse anti-ROR1 monoclonal antibody
On to B1, for which the binding result in assay [1] and in assay [2] was “binds” each time.

B2: anti-ROR1 scFv-mouse Fc fusion (scFv of clone 2H6) (Fc fusion)
scFv: VKLVESGGGLVKPGGSLKLSCAASGFTFSTYAMSWVRQTPEKRLEWVASISSGGNTYYPDSVKGRFTISRDNARHILYLQMSSLRSEDTAMYYCARDSYYFGNSVYYAMDYWGQGTSVTVSSGGGGSGGGGSGGGGSDIKMTQSPSSMYASLGERVTITCKASQDINSYFSWFQQKPGKSPKTLIYRANRLVDGVPSRFSGSGSGQDYSLTISSLEYEDMGIYYCLQYDEFPYTFGGGTKLEIKR
notes: Used as the primary antibody in the Western blot. scFv is VH-(G4S)3-VL; The mouse Fc part is not described; also called anti-ROR1 scFv (mouse clone 2H6); not shown: mouse Fc
On to B2, for which the binding result in assay [3] is listed as “binds”.
